From article PMC5770551 come the findings set out here.

In the test the target is CbpAC (pneumococcal surface protein C variant) of nonencapsulated Streptococcus pneumoniae strain MNZ41 (Streptococcus pneumoniae (nonencapsulated strain MNZ41)). Briefly: flow cytometry on cells; 10^7 CFU viable pneumococci incubated with 200 µl of 10 µg/ml nonspecific mouse IgA for 1 h on ice; detected with biotinylated goat anti-mouse IgA and streptavidin-Alexa Fluor 488; percent positive cells gated above background.

nonspecific mouse IgA (antibody) had a percent positive cells (MNZ41 bacteria expressing CbpAC) of 58.6%.
